In patent US20160159910A1 (Genentech, published 2016):
Where a chain is given by its changes, count along the chain named.

T1: human B7-H4 (human, UniProt Q7Z7D3 29-282)
T1 construct: On stably transfected 293 cells (recombinant) or on MX-1 / SKBR3 tumor cells (endogenous); the cell is named under assay; also called huB7-H4; hB7-H4
T1 sequence: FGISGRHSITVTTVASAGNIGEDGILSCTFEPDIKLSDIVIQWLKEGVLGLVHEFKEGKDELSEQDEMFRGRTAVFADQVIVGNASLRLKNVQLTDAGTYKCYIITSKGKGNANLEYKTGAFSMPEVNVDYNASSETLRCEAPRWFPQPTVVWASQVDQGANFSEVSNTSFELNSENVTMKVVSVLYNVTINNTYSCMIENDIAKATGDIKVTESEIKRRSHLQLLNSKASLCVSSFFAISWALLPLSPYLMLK

T2: cynomolgus monkey B7-H4 (cynomolgus monkey, UniProt Q7Z7D3 29-282 (human entry))
T2 construct: On stably transfected 293 cells; also called cyno B7-H4; recombinant cynomolgus monkey B7-H4
T2 chain: T1 sequence with L49I, F238L, S248A

T3: mouse B7-H4 (mouse, UniProt Q7TSP5 29-283)
T3 construct: On stably transfected 293 cells; also called muB7-H4; recombinant mouse B7-H4
T3 sequence: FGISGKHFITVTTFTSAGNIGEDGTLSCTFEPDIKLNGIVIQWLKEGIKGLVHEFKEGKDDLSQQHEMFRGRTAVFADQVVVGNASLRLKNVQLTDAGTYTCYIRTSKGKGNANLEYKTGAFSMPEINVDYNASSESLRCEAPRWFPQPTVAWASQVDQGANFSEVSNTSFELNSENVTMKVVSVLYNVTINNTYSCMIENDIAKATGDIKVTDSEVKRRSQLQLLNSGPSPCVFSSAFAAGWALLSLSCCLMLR

T4: rat B7-H4 (rat, UniProt Q501W4 29-282)
T4 construct: On stably transfected 293 cells; also called recombinant rat B7-H4
T4 sequence: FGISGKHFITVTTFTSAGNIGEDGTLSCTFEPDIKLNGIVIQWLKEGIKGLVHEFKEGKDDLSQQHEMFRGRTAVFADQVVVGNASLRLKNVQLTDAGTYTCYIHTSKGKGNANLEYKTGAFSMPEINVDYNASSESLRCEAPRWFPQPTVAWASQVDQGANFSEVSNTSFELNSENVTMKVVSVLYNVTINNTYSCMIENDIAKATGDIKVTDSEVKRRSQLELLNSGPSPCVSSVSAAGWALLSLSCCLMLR

T5: human B7-H4 S114A glycosylation mutant (human, UniProt Q7Z7D3 29-282)
T5 construct: Full-length human B7-H4 membrane construct with S114 changed to alanine to prevent N-linked glycosylation at N112-S114; transiently expressed on 293 cells; also called mutated S114A human B7-H4; recombinant human B7-H4 S114A
T5 sequence: T1 sequence with S86A

B1: humanized 22C10.v2.8 (antibody, V domains shown)
VH: EVQLVQSGAEVKKPGASVKVSCKASGYTFTNFWIHWVRQAPGQGLEWIGEIDPSDSYTNYNQKFKGRVTITRDTSTSTAYLELSSLRSEDTAVYYCAREITTVDYWGQGTLVTVSS
VL: DIQMTQSPSSLSASVGDRVTITCSATSSISYMHWYQQKPGKAPKGLIYDTSKLAHGVPSRFSGSGSGTDFTLTISSLQPEDFATYYCHQRRSYPFTFGQGTKVEIK
notes: Assessed in the form of an IgG produced in 293 cells; also called hu22C10.v2.8; h22C10.v2.8
B2: chimeric antibody ch1D11 (antibody, human IgG1, V domains shown)
VH: QVQLQQSGAELVRPGTSVKMSCKASGYTFTSYWIGWAKQRPGHGFEWIGDIYPGGGYTNYNEKFKGKATLTADKSSSTAYMQFSSLTSEDSAIYYCARLDGSSYRGAMDSWGQGTSITVSS
VL: DIQMTQSPSSLSASLGGKVTITCKASQGFNKYVAWYQHKPGQCPRLLIHYTSTLQPGIPARFSGSGSGRDYSFSISNLEPEDSATYFCLQYGNLLYAFGGGTKLEIKR
notes: also called parental 1D11 antibody; antibody 1D11
B3: humanized 1D11.v1.7 (antibody, V domains shown)
VH: EVQLVQSGAEVKKPGASVKVSCKASGYTFTSYWIGWVRQAPGQGLEWIGDIYPGGGYTNYNEKFKGRATLTRDTSTSTAYLELSSLRSEDTAVYYCARLDGSSYRGAMDSWGQGTLVTVSS
VL: DIQMTQSPSSLSASVGDRVTITCKASQGFNKYVAWYQQKPGKAPKLLIYYTSTLQPGVPSRFSGSGSGRDYTLTISSLQPEDFATYYCLQYGNLLYAFGQGTKVEIKR
notes: also called hu1D11.v1.7; h1D11.v1.7
B4: humanized 1D11.v1.8 (antibody, V domains shown)
VH: B3 VH with L70I
VL: B3 VL
notes: also called hu1D11.v1.8; h1D11.v1.8
B5: chimeric antibody ch9B9 (antibody, human IgG1, V domains shown)
VH: QVQLQQSGAELMKPGASVKMSCKATGYTFSSYWIEWVKQRPGHGLEWIGEILPGTSITTYNAKFKVKATFTADTSSNTAYMQLSSLTSEDSAVYFCARYYFGSSSFYFDYWGQGTSLTVSS
VL: QAVVTQESALTTSPGDTVTLTCRSSTGAVTTSNYANWVQEKPDHLFTGLIGGTNNRVPGVPARFSGSLIGDKAALTITGAQTEDEAMYFCALWYNNHWVFGGGTKLE
notes: also called antibody 9B9
B6: hu1D11.v1.9 varC2 (antibody, V domains shown)
VH: B3 VH with A68V, L70I, D100A
VL: B3 VL with N93D
notes: IgG1 / kappa; also called h1D11v1.9_VarC2; h1D11v1.9 variant C2

Tests used:
human B7-H4 [1] = biological target: T1, human B7-H4; assay: FACS titration on MX-1 tumor cells, endogenous human B7-H4 (panel 'MX-1 tumor cell line', upper block), geometric mean fluorescence
Method: (§1) The fluorescent signal was acquired with a BD FACS Calibur and EC₅₀ values were determined with the Graph Pad program Prism 4.

cynomolgus monkey B7-H4 [2] = biological target: T2, cynomolgus monkey B7-H4; assay: FACS titration on 293 cells expressing recombinant cynomolgus B7-H4 (panel '293-cyno B7-H4', upper block), geometric mean fluorescence
Method: as §1

human B7-H4 [3] = biological target: T1, human B7-H4; assay: Scatchard analysis on MX-1 cells; the table puts the affinity of 10 nM beside the parent antibody's 4.9 nM
Method: (§2) Competition assay mixtures of 50 μL volume containing a fixed concentration of [I¹²⁵] labeled antibody and decreasing concentrations of serially diluted, unlabeled antibody were placed into 96-well plates. […] Cells were detached from the flask using Sigma Cell Dissociation Solution and were washed with binding buffer, which consisted of Dulbecco's Modified Eagle Medium (DMEM) with 1% bovine serum albumin (BSA), 300 mM human IgG and 0.1% sodium azide. The washed cells were added to the 96 well plates at a density of 100,000 cells in 0.2 mL of binding buffer. The final concentration of the [I¹²⁵] labeled antibody in each well was ˜250 pM. The final concentration of the unlabeled antibody in the competition assay ranged from 1000 nM through ten 2-fold dilution steps to a 0 nM buffer-only assay. Competition assays were carried out in triplicate. Competition assays were incubated for 2 hours at room temperature. […] The filters were counted on a Wallac Wizard 1470 gamma counter (PerkinElmer Life and Analytical Sciences Inc.; Wellesley, Mass.). The binding data was evaluated using NewLigand software (Genentech), which uses the fitting algorithm of Munson and Robard to determine the binding affinity of the antibody (Munson and Robard 1980).

human B7-H4 [4] = biological target: T1, human B7-H4; assay: FACS titration on 293 cells expressing recombinant human B7-H4 (panel '293-human B7-H4', upper block), Dylight-650 goat anti-human IgG, geometric mean fluorescence
Method: as §1

human B7-H4 [5] = biological target: T1, human B7-H4; assay: Scatchard analysis, 125I-antibody radioligand cell binding on MX-1 tumor cells
Method: (§3) Competition assay mixtures of 50 μL volume containing a fixed concentration of [I¹²⁵] labeled antibody and decreasing concentrations of serially diluted, unlabeled antibody were placed into 96-well plates. […] Cells were detached from the flask using Sigma Cell Dissociation Solution and were washed with binding buffer, which consisted of Dulbecco's Modified Eagle Medium (DMEM) with 1% bovine serum albumin (BSA), […] and 0.1% sodium azide. The washed cells were added to the 96 well plates at a density of 100,000 cells in 0.2 mL of binding buffer. The final concentration of the [I¹²⁵] labeled antibody in each well was ˜250 pM. The final concentration of the unlabeled antibody in the competition assay ranged from 1000 nM through ten 2-fold dilution steps to a 0 nM buffer-only assay. Competition assays were carried out in triplicate. Competition assays were incubated for 2 hours at room temperature. After the 2-hour incubation, the competition assays were transferred to a Millipore Multiscreen filter plate (Billerica, Mass.) and washed 4 times with binding buffer to separate the free from bound [I¹²⁵] labeled antibody. The filters were counted on a Wallac Wizard 1470 gamma counter (PerkinElmer Life and Analytical Sciences Inc.; Wellesley, Mass.). The binding data was evaluated using NewLigand software (Genentech), which uses the fitting algorithm of Munson and Robard to determine the binding affinity of the antibody (Munson and Robard 1980).

mouse B7-H4 [6] = biological target: T3, mouse B7-H4; assay: FACS titration on 293 cells expressing recombinant mouse B7-H4 (panel '293-mouse B7-H4', upper block), geometric mean fluorescence
Method: as §1

cynomolgus monkey B7-H4 [7] = biological target: T2, cynomolgus monkey B7-H4; assay: FACS titration on 293 cells expressing recombinant cynomolgus B7-H4 (panel '293-cyno B7-H4', lower block), geometric mean fluorescence
Method: as §1

mouse B7-H4 [8] = biological target: T3, mouse B7-H4; assay: FACS titration on 293 cells expressing recombinant mouse B7-H4 (panel '293-mouse B7-H4', lower block), geometric mean fluorescence
Method: as §1

human B7-H4 [9] = biological target: T1, human B7-H4; assay: FACS titration on MX-1 tumor cells, endogenous human B7-H4 (panel 'MX-1 tumor cell line', lower block), geometric mean fluorescence
Method: as §1

human B7-H4 [10] = biological target: T1, human B7-H4; assay: Scatchard analysis, 125I-antibody radioligand cell binding on stably transfected 293 cells
Method: as §3

mouse B7-H4 [11] = biological target: T3, mouse B7-H4; assay: as above
Method: as §3

rat B7-H4 [12] = biological target: T4, rat B7-H4; assay: as above
Method: as §3

cynomolgus monkey B7-H4 [13] = biological target: T2, cynomolgus monkey B7-H4; assay: as above
Method: as §3

human B7-H4 [14] = biological target: T1, human B7-H4; assay: FACS titration on 293 cells expressing recombinant human B7-H4 (panel '293-human B7-H4', lower block), Dylight-650 goat anti-human IgG, geometric mean fluorescence
Method: as §1

human B7-H4 [15] = biological target: T1, human B7-H4; assay: Scatchard analysis on MX-1 cells; the table puts the affinity of 8.3 nM beside the parent antibody's 7.8 nM
Method: as §2

human B7-H4 [16] = biological target: T1, human B7-H4; assay: Scatchard analysis on MX-1 cells; the table puts the affinity of 8.7 nM beside the parent antibody's 7.8 nM
Method: as §2

[17] = biological target: T5, human B7-H4 S114A glycosylation mutant; assay: FACS on 293 cells transfected with S114A human B7-H4 (glycosylation independence)
human B7-H4 [18] = biological target: T1, human B7-H4; assay: Scatchard analysis, radioligand cell binding on 293 cells expressing recombinant B7-H4
Method: as §3

mouse B7-H4 [19] = biological target: T3, mouse B7-H4; assay: as above
Method: as §3

rat B7-H4 [20] = biological target: T4, rat B7-H4; assay: as above
Method: as §3

cynomolgus monkey B7-H4 [21] = biological target: T2, cynomolgus monkey B7-H4; assay: as above
Method: as §3

human B7-H4 [22] = biological target: T1, human B7-H4; assay: Scatchard analysis, radioligand cell binding on MX-1 cells (endogenous human B7-H4)
Method: as §2

Row | Binder | Kd (human B7-H4 [5]) [nM] | EC50 (cynomolgus monkey B7-H4 [7]) [µg/mL] | EC50 (mouse B7-H4 [8]) [µg/mL] | EC50 (human B7-H4 [9]) [µg/mL] | Kd (human B7-H4 [10]) [nM] | Kd (mouse B7-H4 [11]) [nM] | Kd (rat B7-H4 [12]) [nM] | Kd (cynomolgus monkey B7-H4 [13]) [nM] | EC50 (human B7-H4 [14]) [µg/mL] | other results
1 | B1 | 10 |  |  |  |  |  |  |  |  | EC50 (human B7-H4 [1]): 0.73 µg/mL; EC50 (cynomolgus monkey B7-H4 [2]): 1.19 µg/mL; Fold to Parent mAb (human B7-H4 [3]): 0.49; EC50 (human B7-H4 [4]): 1.44 µg/mL; EC50 (mouse B7-H4 [6]): 0.97 µg/mL
2 | B2 | 7.8 | 0.66 | 0.38 | 0.67 | 6.1 | 9.4 | 4.1 | 4.1 | 0.96 | 
3 | B3 | 8.3 | 0.68 | 0.45 | 0.34 |  |  |  |  | 0.66 | Fold to Parent mAb (human B7-H4 [15]): 0.94
4 | B4 | 8.7 | 0.18 | 1.32 | 0.53 |  |  |  |  | 2.29 | Fold to Parent mAb (human B7-H4 [16]): 0.89
5 | B5 |  |  |  |  | 6.6 | 13.7 | 4.7 | 5.2 |  | fold binding over the isotype control [17]: 100 fold
6 | B6 |  |  |  |  |  |  |  |  |  | Kd (human B7-H4 [18]): 0.9 nM; Kd (mouse B7-H4 [19]): 2.1 nM; Kd (rat B7-H4 [20]): 1.2 nM; Kd (cynomolgus monkey B7-H4 [21]): 1 nM; Kd (human B7-H4 [22]): 2 nM
